# Test results taken from the supplement of paper PMC10567573.
# B1: MATN2 (parent)
# chain: FSLKTFKRKSEVERAVKRMRHLST
# Variants of: B1
# Experiment: protein stability index of a GFP-peptide fusion (GPS, HEK-293T) (PSI 1-6); higher = more stable
# Conditions: c terminus: a fixed tail appended
# 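Also: lentivirally expressed fusions sorted by FACS into six bins by GFP to DsRed ratio, PSI derived from sequencing read proportions per bin multiplied by bin number.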
row,Variant,protein stability index
1,FSLKTFKRKSEVERAVKRIRHLST [M19I],4.04
2,FSLKTFKRKSEVERAVKRERHLST [M19E],3.34
3,FSLKTFKRKSEVERAVKRPRHLST [M19P],2.14
4,FSLKTFKRKSEVERAVPRMRHLST [K17P],3.24
5,FSLKTFKRKSEVERAVHRMRHLST [K17H],3.01
6,FSLKTFKRKSEVERAVQRMRHLST [K17Q],2.13
7,FSLKTFKRKSEVERAVRRMRHLST [K17R],1.87
8,FSLKTFKRKSEVERAVIRMRHLST [K17I],2.04
9,FSLKTFKRKSEVERAVDRMRHLST [K17D],2.92
10,FSLKTFKRKSEVERAVSRMRHLST [K17S],2.65
11,FSLKTFKRKSEVERAVNRMRHLST [K17N],2.5
12,FSLKTFKRKSEVERAVMRMRHLST [K17M],2.53
13,FSLKTFKRKSEVERAVERMRHLST [K17E],2.38
14,FSLKTFKRKSEVERAVVRMRHLST [K17V],2.69
15,FSLKTFKRKSEVERAVLRMRHLST [K17L],1.92
16,FSLKTFKRKSEVERAVYRMRHLST [K17Y],1.76
17,FSLKTFKRKSEVERAVCRMRHLST [K17C],2.35
18,FSLKTFKRKSEVERAVTRMRHLST [K17T],2.34
19,FSLKTFKRKSEVERAVFRMRHLST [K17F],1.75
20,FSLKTFKRKSEVERAVARMRHLST [K17A],2.26
21,FSLKTFKRKSEVERAVKRMVHLST [R20V],1.6
22,FSLKTFKRKSEVERAVKRMNHLST [R20N],2.54
23,FSLKTFKRKSEVERAVKRMKHLST [R20K],2.59
24,FSLKTFKRKSEVERAVKRMQHLST [R20Q],2.22

row,Variant,protein stability index
1,FSLKTFKRKSEVERAVKRMTHLST [R20T],2.57
2,FSLKTFKRKSEVERAVKRMWHLST [R20W],1.24
3,FSLKTFKRKSEVERAVKRMAHLST [R20A],2.14
4,FSLKTFKRKSEVERAVKRMSHLST [R20S],2.42
5,FSLKTFKRKSEVERAVKRMMHLST [R20M],2.08
6,FSLKTFKRKSEVERAVKRMCHLST [R20C],2.4
7,FSLKTFKRKSEVERAVKRMYHLST [R20Y],2.32
8,FSLKTFKRKSEVERAVKRMPHLST [R20P],3.21
9,FSLKTFKRKSEVERAVKRMFHLST [R20F],1.9
10,FSLKTFKRKSEVERAVKRMIHLST [R20I],2.82
11,FSLKTFKRKSEVERAVKRMDHLST [R20D],2.54
12,FSLKTFKRKSEVERAVKRMEHLST [R20E],2.54
13,FSLKTFKRKSEVERAVKRMLHLST [R20L],2.81
14,FSLKTFKRKSEVERAVKRMGHLST [R20G],2.38
15,FSLKTFKRKSEVERAVKRMHHLST [R20H],2
16,FSLKTFKRKSEVERFVKRMRHLST [A15F],2.94
17,FSLKTFKRKSEVERPVKRMRHLST [A15P],2.43
18,FSLKTFKRKSEVERIVKRMRHLST [A15I],1.38
19,FSLKTFKRKSEVERSVKRMRHLST [A15S],2.33
20,FSLKTFKRKSEVERCVKRMRHLST [A15C],2.27
21,FSLKTFKRKSEVERHVKRMRHLST [A15H],2.87
22,FSLKTFKRKSEVERKVKRMRHLST [A15K],2.7
23,FSLKTFKRKSEVERDVKRMRHLST [A15D],2.89
24,FSLKTFKRKSEVERTVKRMRHLST [A15T],2.78

row,Variant,protein stability index
1,FSLKTFKRKSEVERQVKRMRHLST [A15Q],2.58
2,FSLKTFKRKSEVERWVKRMRHLST [A15W],2.17
3,FSLKTFKRKSEVERVVKRMRHLST [A15V],2.27
4,FSLKTFKRKSEVERNVKRMRHLST [A15N],2.81
5,FSLKTFKRKSEVERGVKRMRHLST [A15G],2.35
6,FSLKTFKRKSEVERRVKRMRHLST [A15R],3.91
7,FSLKTFKRKSEVEREVKRMRHLST [A15E],2.73
8,FSLKTFKRKSEVERMVKRMRHLST [A15M],2.2
9,FSLKTFKRKSEVERYVKRMRHLST [A15Y],1.59
10,FSLKTFKRKSEVKRAVKRMRHLST [E13K],2.69
11,FSLKTFKRKSEVARAVKRMRHLST [E13A],2
12,FSLKTFKRKSEVCRAVKRMRHLST [E13C],1.83
13,FSLKTFKRKSEVRRAVKRMRHLST [E13R],2.22
14,FSLKTFKRKSEVVRAVKRMRHLST [E13V],2.11
15,FSLKTFKRKSEVFRAVKRMRHLST [E13F],2.08
16,FSLKTFKRKSEVSRAVKRMRHLST [E13S],2.34
17,FSLKTFKRKSEVHRAVKRMRHLST [E13H],2.37
18,FSLKTFKRKSEVWRAVKRMRHLST [E13W],1.4
19,FSLKTFKRKSEVIRAVKRMRHLST [E13I],2.29
20,FSLKTFKRKSEVTRAVKRMRHLST [E13T],2.41
21,FSLKTFKRKSEVYRAVKRMRHLST [E13Y],2.94
22,FSLKTFKRKSEVDRAVKRMRHLST [E13D],2.52
23,FSLKTFKRKSEVMRAVKRMRHLST [E13M],2.25
24,FSLKTFKRKSEVGRAVKRMRHLST [E13G],1.83

row,Variant,protein stability index
1,FSLKTFKRKSEVPRAVKRMRHLST [E13P],3.15
2,FSLKTFKRKSEVLRAVKRMRHLST [E13L],2.28
3,FSLKTFKRKSEVQRAVKRMRHLST [E13Q],2.9
4,FSLKTFKRKSEVNRAVKRMRHLST [E13N],2.83
5,FSLKTFKRKSEVERALKRMRHLST [V16L],1.51
6,FSLKTFKRKSEVERAGKRMRHLST [V16G],2.71
7,FSLKTFKRKSEVERATKRMRHLST [V16T],3.1
8,FSLKTFKRKSEVERASKRMRHLST [V16S],2.57
9,FSLKTFKRKSEVERANKRMRHLST [V16N],2.47
10,FSLKTFKRKSEVERADKRMRHLST [V16D],2.15
11,FSLKTFKRKSEVERAHKRMRHLST [V16H],2.19
12,FSLKTFKRKSEVERAAKRMRHLST [V16A],2.82
13,FSLKTFKRKSEVERAQKRMRHLST [V16Q],2.92
14,FSLKTFKRKSEVERACKRMRHLST [V16C],2.48
15,FSLKTFKRKSEVERAWKRMRHLST [V16W],1.76
16,FSLKTFKRKSEVERAMKRMRHLST [V16M],2.93
17,FSLKTFKRKSEVERARKRMRHLST [V16R],2.48
18,FSLKTFKRKSEVERAEKRMRHLST [V16E],2.43
19,FSLKTFKRKSEVERAIKRMRHLST [V16I],2.07
20,FSLKTFKRKSEVERAYKRMRHLST [V16Y],2.1
21,FSLKTFKRKSEVERAPKRMRHLST [V16P],2.33
22,FSLKTFKRKSEVERAFKRMRHLST [V16F],3.4
